This note sets out measurements from patent US20150258192A1, “COMPOSITIONS AND METHODS FOR PREVENTING OR TREATING CHRONIC LUNG ALLOGRAFT DYSFUNCTION (CLAD) AND IDIOPATHIC PULMONARY FIBROSIS (IPF)” (priority 2014, published 2015).

This assay addresses MAPKAP-K2(h) (human) (UniProt P49137). In words: cell-based or functional assay.

For the substance MMI-0100 ([…]; SEQ ID NO: 1) (peptide), the IC50 (radiometric kinase activity assay) turned out to be 22 µM.
